In publication PMC3094755, “The DNA-Binding Domain of Human PARP-1 Interacts with DNA Single-Strand Breaks as a Monomer through Its Second Zinc Finger” one finds binding result, binding signal and Kd data, which are given here for 6 molecules.

One series has as its target PARP-1 F2 (Homo sapiens, UniProt P09874 103-214). Nature of the series: EMSA; 400 nM DNA; slightly less than F1+F2; FA: 50 mM Tris-HCl pH 7, 150 uM ZnSO4, 4 mM DTT, 0-200 mM NaCl, 25 C, 10 nM DNA (mutants 25 nM DNA, 25 mM NaCl); EMSA: 50 mM Tris-HCl pH 7.4, 150 uM ZnSO4, 4 mM DTT, 10% glycerol, RT incubation, gel at 4 C; NMR complexes: 50 mM Tris pH 7.0, 150 uM ZnSO4, 4 mM DTT, 37 C. The note with it: protein: recombinant; single-chain dumbbell with 1-nt gap, two tetraloops. Background: Mobility shift assays separate free from complexed probe on a gel.

Another series concerns the target PARP-1 F2 R138I (Homo sapiens, UniProt P09874 103-214, R138I). Nature of the series: EMSA; 400 nM DNA; FA: 50 mM Tris-HCl pH 7, 150 uM ZnSO4, 4 mM DTT, 0-200 mM NaCl, 25 C, 10 nM DNA (mutants 25 nM DNA, 25 mM NaCl); EMSA: 50 mM Tris-HCl pH 7.4, 150 uM ZnSO4, 4 mM DTT, 10% glycerol, RT incubation, gel at 4 C; NMR complexes: 50 mM Tris pH 7.0, 150 uM ZnSO4, 4 mM DTT, 37 C. The note with it: protein: recombinant; single-chain dumbbell with 1-nt gap, two tetraloops.

For a further series, the target named is PARP-1 F2 K131I/G135D (Homo sapiens, UniProt P09874 103-214, K131I;G135D). The description is as above. The note with it: protein: recombinant; single-chain dumbbell with 1-nt gap, two tetraloops.
Chain of PARP-1 F2 K131I/G135D (P09874 103-214 K131I/G135D): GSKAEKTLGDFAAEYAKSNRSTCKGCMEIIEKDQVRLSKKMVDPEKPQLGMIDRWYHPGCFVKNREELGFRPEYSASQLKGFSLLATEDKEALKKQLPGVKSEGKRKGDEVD
For series [1], the target named is T1, PARP-1 F1+F2 (24-kDa DBD) (Homo sapiens, UniProt P09874 1-214). The description is as above. The note with it: protein: recombinant; single-chain dumbbell with 1-nt gap, two tetraloops.
T1 sequence (P09874 1-214): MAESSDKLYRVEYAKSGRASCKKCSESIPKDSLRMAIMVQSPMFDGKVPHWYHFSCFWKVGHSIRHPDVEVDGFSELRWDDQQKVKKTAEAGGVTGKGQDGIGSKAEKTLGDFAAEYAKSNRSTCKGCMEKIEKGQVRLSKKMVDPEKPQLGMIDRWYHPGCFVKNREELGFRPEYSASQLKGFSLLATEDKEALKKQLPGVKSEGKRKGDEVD
The target of the next series is PARP-1 F2 K141I/K142I (Homo sapiens, UniProt P09874 103-214, K141I;K142I). The series is described as above. The note with it: protein: recombinant; single-chain dumbbell with 1-nt gap, two tetraloops.
Chain of PARP-1 F2 K141I/K142I (P09874 103-214 K141I/K142I): as the sequence (P09874 103-214 K131I/G135D) above, with I29K, D33G, K39I, K40I counted along it
The target of series [2] is T1, PARP-1 F1+F2 (24-kDa DBD). As to the kind of experiment: NMR; 1:1 complex; FA: 50 mM Tris-HCl pH 7, 150 uM ZnSO4, 4 mM DTT, 0-200 mM NaCl, 25 C, 10 nM DNA (mutants 25 nM DNA, 25 mM NaCl); EMSA: 50 mM Tris-HCl pH 7.4, 150 uM ZnSO4, 4 mM DTT, 10% glycerol, RT incubation, gel at 4 C; NMR complexes: 50 mM Tris pH 7.0, 150 uM ZnSO4, 4 mM DTT, 37 C. The note with it: protein: recombinant; single-chain dumbbell with 1-nt gap, two tetraloops.

The target in series [3] is T1, PARP-1 F1+F2 (24-kDa DBD). As to the kind of experiment: EMSA; 400 nM DNA; FA: 50 mM Tris-HCl pH 7, 150 uM ZnSO4, 4 mM DTT, 0-200 mM NaCl, 25 C, 10 nM DNA (mutants 25 nM DNA, 25 mM NaCl); EMSA: 50 mM Tris-HCl pH 7.4, 150 uM ZnSO4, 4 mM DTT, 10% glycerol, RT incubation, gel at 4 C; NMR complexes: 50 mM Tris pH 7.0, 150 uM ZnSO4, 4 mM DTT, 37 C. The note with it: protein: recombinant; single-chain dumbbell, 18 bp with central nick, two tetraloops.

Series [4] deals with T1, PARP-1 F1+F2 (24-kDa DBD). Nature of the series: fluorescence anisotropy; 25; 50 mM Tris-HCl pH 7.0, 150 uM ZnSO4, 4 mM DTT, 25 C; NaCl 0-200 mM (T2, as in cof; 10 nM DNA) or 25 mM (T3 mutants; 25 nM DNA). The note with it: protein: recombinant, label: fluorescein-dT at T8 and T30, two tetraloops. (Fluorescence polarisation rises when a labelled molecule tumbles more slowly, as on binding a larger partner.)

Series [5] addresses T1, PARP-1 F1+F2 (24-kDa DBD). As to the kind of experiment: fluorescence anisotropy; 200; 50 mM Tris-HCl pH 7.0, 150 uM ZnSO4, 4 mM DTT, 25 C; NaCl 0-200 mM (T2, as in cof; 10 nM DNA) or 25 mM (T3 mutants; 25 nM DNA). The note with it: protein: recombinant; label: fluorescein-dT at T8 and T30; single-chain dumbbell with central nick, two tetraloops.
Series [6] concerns the target T1, PARP-1 F1+F2 (24-kDa DBD). Nature of the series: fluorescence anisotropy; 100; 50 mM Tris-HCl pH 7.0, 150 uM ZnSO4, 4 mM DTT, 25 C; NaCl 0-200 mM (T2, as in cof; 10 nM DNA) or 25 mM (T3 mutants; 25 nM DNA). The note with it: protein: recombinant, label: fluorescein-dT at T8 and T30, two tetraloops.
In series [7] the target is T1, PARP-1 F1+F2 (24-kDa DBD). As to the kind of experiment: fluorescence anisotropy; 50; 50 mM Tris-HCl pH 7.0, 150 uM ZnSO4, 4 mM DTT, 25 C; NaCl 0-200 mM (T2, as in cof; 10 nM DNA) or 25 mM (T3 mutants; 25 nM DNA). The note with it: protein: recombinant, label: fluorescein-dT at T8 and T30, two tetraloops.
In series [8] the target is T1, PARP-1 F1+F2 (24-kDa DBD). Nature of the series: fluorescence anisotropy; 150; 50 mM Tris-HCl pH 7.0, 150 uM ZnSO4, 4 mM DTT, 25 C; NaCl 0-200 mM (T2, as in cof; 10 nM DNA) or 25 mM (T3 mutants; 25 nM DNA). The note with it: protein: recombinant; label: fluorescein-dT at T8 and T30; single-chain dumbbell with central nick, two tetraloops.
The target in series [9] is T1, PARP-1 F1+F2 (24-kDa DBD). Nature of the series: fluorescence anisotropy; 0; 50 mM Tris-HCl pH 7.0, 150 uM ZnSO4, 4 mM DTT, 25 C; NaCl 0-200 mM (T2, as in cof; 10 nM DNA) or 25 mM (T3 mutants; 25 nM DNA). The note with it: protein: recombinant, label: fluorescein-dT at T8 and T30, two tetraloops.
Series [10] deals with T1, PARP-1 F1+F2 (24-kDa DBD). Nature of the series: fluorescence anisotropy; 75; 50 mM Tris-HCl pH 7.0, 150 uM ZnSO4, 4 mM DTT, 25 C; NaCl 0-200 mM (T2, as in cof; 10 nM DNA) or 25 mM (T3 mutants; 25 nM DNA). The note with it: protein: recombinant, label: fluorescein-dT at T8 and T30, two tetraloops.
The mark [11] stands for this setting: single-chain dumbbell with central nick.
Where [12] appears, read: circular closed dumbbell, no nick.

Chain of PARP-1 F2 (P09874 103-214): as the sequence (P09874 103-214 K131I/G135D) above, with I29K, D33G counted along it
Chain of PARP-1 F2 R138I (P09874 103-214 R138I): as the sequence (P09874 103-214 K131I/G135D) above, with I29K, D33G, R36I counted along it

On to CGGTCGATCGTAAGATCGACCGTGCGCTGGAGCTTGCTCCAGCGC (structured_DNA, 5'-phosphate) [45-nt gapped dumbbell, 5'-phosphate], for which the binding result was “binds” in the series with PARP-1 F2; “no binding” in the series with PARP-1 F2 R138I; “no binding” in the series with PARP-1 F2 K131I/G135D; “binds” in series [1]; “no binding” in the series with PARP-1 F2 K141I/K142I.
Turning to CGGTCGATCGTAAGATCGACCGTGCGCTGGAGCTTGCTCCAGCGC (structured_DNA, 5'-deoxyribose (printed as 5' ribose in text)) [45-nt gapped dumbbell, 5'-ribosylated], in [2], the binding result is listed as “binds”.
For CGGTCGATCGTAAGATCGACCGTGCGCTGGAGCTTGCTCCAGCGC (structured_DNA, 3'-phosphate) [45-nt gapped dumbbell, 3'-phosphate], the binding result in series [2] is reported as “binds”.
Consider CGGTCGATCGTAAGATCGACCGGCGCTGGAGCTTGCTCCAGCGC (structured_DNA, 5'-phosphate) [44-nt nicked dumbbell, 5'-phosphate], for which the binding signal in [3] is ~2 fold weaker than gapped ligand.
By Kd is commonly meant the equilibrium constant for the complex coming apart. In the case of CGGTCGATCGTAAGATCGACCGCGGTCGATCGTAAGATCGACCG (structured_DNA, 5'-phosphate) [44-nt nicked symmetric dumbbell, 5'-phosphate, 2x fluorescein-dT], the Kd in series [4] (setting [11]) was 54.2 nM; in [5] it was 46.2 nM; in series [6] (setting [11]), 56.9 nM; in [7] (setting [11]), 56.1 nM; in series [8] it was 52.4 nM; in [9] (setting [11]), 48.6 nM. Moreover, the Kd in series [10] (setting [11]) came out at 62.4 nM.
For the molecule CGGTCGATCGTAAGATCGACCGCGGTCGATCGTAAGATCGACCG (structured_DNA, circular, nick sealed by T4 DNA ligase) [ligated (circular) symmetric 44-nt dumbbell, 2x fluorescein-dT], the equilibrium dissociation constant (Kd) was determined as 134 nM in series [4] (setting [12]); 1110 nM in series [6] (setting [12]); 166 nM in series [7] (setting [12]); 117 nM in [9] (setting [12]); 480 nM in [10] (setting [12]).
